Test results: US20220098269A1 (IMMATICS BIOTECHNOLOGIES, published 2022)

What was measured:
HLA-A*01:01 = target: T1, HLA-A*01:01 (human); experiment: UV-ligand exchange, anti-b2m ELISA; peptide exchange yield grade
T1 construct: Peptide-receptive MHC class I monomer after UV cleavage of a UV-sensitive ligand; captured on streptavidin plates, detected with anti-b2m
Source text: (§1) Candidate peptides for T cell based therapies according to the present invention were further tested for their MHC binding capacity (affinity). The individual peptide-MHC complexes were produced by UV-ligand exchange, where a UV-sensitive peptide is cleaved upon UV-irradiation and exchanged with the peptide of interest as analyzed. Only peptide candidates that can effectively bind and stabilize the peptide-receptive MHC molecules prevent dissociation of the MHC complexes. To determine the yield of the exchange reaction, an ELISA was performed based on the detection of the light chain (β2m) of stabilized MHC complexes. The assay was performed as generally described in Rodenko et al. (Rodenko et al., 2006).
(§2) 96 well MAXISorp plates (NUNC) were coated over night with 2 μg/ml streptavidin in PBS at room temperature, washed 4× and blocked for 1h at 37° C. in 2% BSA containing blocking buffer. Refolded HLA-A*02:01/MLA-001 monomers served as standards, covering the range of 15-500 ng/ml. Peptide-MHC monomers of the UV-exchange reaction were diluted 100-fold in blocking buffer. Samples were incubated for 1 h at 37° C., washed four times, incubated with 2 μg/ml HRP conjugated anti-β2m for 1h at 37° C., washed again and detected with TMB solution that is stopped with […]. Absorption was measured at 450 nm. Candidate peptides that show a high exchange yield (preferably higher than 50%, most preferred higher than 75%) are generally preferred for a generation and production of antibodies or fragments thereof, and/or T cell receptors or fragments thereof, as they show sufficient avidity to the MHC molecules and prevent dissociation of the MHC complexes.

HLA-A*24:02 = target: T2, HLA-A*24:02 (human); experiment: as above
T2 construct: Peptide-receptive MHC class I monomer after UV cleavage of a UV-sensitive ligand
Source text: as §1, §2

Binder | peptide exchange yield (HLA-A*01:01) | peptide exchange yield (HLA-A*24:02)
YIDDVTLI | 20 to 50% | 
GTDKQDSTLRY | ≥ 75% | 
MTDVDRDGTTAY | ≥ 75% | 
TSDTSQYDTY | 50 to 75% | 
FTDLITDESINY | ≥ 75% | 
PSDLSVFTSY | ≥ 75% | 
ISDGMDSSAHY | ≥ 75% | 
LSDLSLADI | 20 to 50% | 
RSLDCTVKTY | 50 to 75% | 
LSDLTCNNY | ≥ 75% | 
PSDGSMHNY | ≥ 75% | 
ISDITEKNSGLY | ≥ 75% | 
RSIDVTGQGF | 20 to 50% | 
RVDDITDQF | 20 to 50% | 
LTEVEKDATALY | ≥ 75% | 
GTDQTGKGLEY | 50 to 75% | 
ILFSDSTRLSF | 50 to 75% | 
HVKDATMGY | 50 to 75% | 
FTDTSSYEY | ≥ 75% | 
LTNDQTLRL | 50 to 75% | 
VTETMGIDGSAY | ≥ 75% | 
VTDVTEEHY | ≥ 75% | 

Binder | peptide exchange yield (HLA-A*01:01) | peptide exchange yield (HLA-A*24:02)
VTRDDTASY | 20 to 50% | 
TFVDASRTLY | ≥ 75% | 
EVEGVIDGTYDY | ≥ 75% | 
EVQDHSTSSY | 20 to 50% | 
ILPDITTTY | 20 to 50% | 
ITDDTVQTY | ≥ 75% | 
WLDRSTILY | ≥ 75% | 
HVSDVTVNY | 20 to 50% | 
HVDNSNLNY | ≥ 75% | 
GVDDTSLLY | ≥ 75% | 
GQYDDSLQAY | 20 to 50% | 
QVDGSLLVI | 20 to 50% | 
HADLTTLTF | 20 to 50% | 
YSIDVTNVM | 50 to 75% | 
VHDFTLPSW |  | 20 to 50%
NHITDTSLNLF | 20 to 50% | 
FFQDSTFSF |  | ≥ 75%
GYIDDVTLI |  | 50 to 75%
IFDETGRF |  | 20 to 50%
SYDETKIKF |  | 10 to 20%
FYDNSVIIF |  | 20 to 50%
IYPDASLLIQNI |  | ≥ 75%

Binder | peptide exchange yield (HLA-A*01:01) | peptide exchange yield (HLA-A*24:02)
IYNFRLWDF |  | ≥ 75%
VFHDHTYHL |  | ≥ 75%
YWDETLKEF |  | 50 to 75%
KLTDNSNQF |  | 20 to 50%
ITDTSLNLF | ≥ 75% | 
NYLLYVSDF |  | ≥ 75%
FFTDKTLSF |  | ≥ 75%
YFVDVTTRI |  | 50 to 75%
QYQDTTVSF |  | 50 to 75%
VYTDISHHF |  | ≥ 75%
IYLDRTLLTTI |  | ≥ 75%
FYDLSIQSF |  | ≥ 75%
FHYDDTAGYF |  | 10 to 20%
IYQFARLDY |  | 20 to 50%
YHDQTISF |  | 10 to 20%
TANYDTSHY | 20 to 50% | 
QAIDLSLNF |  | 20 to 50%
VFDETKNLL |  | 20 to 50%
KSYHDQTISF |  | ≥ 75%
TYLPTDASLSF |  | ≥ 75%
WSDWSNPAY | ≥ 75% | 
VTQDDTGFY | ≥ 75% | 
